Target: T1, Vitronectin from human plasma, SIGMA-ALDRICH (human, UniProt P04004 20-478)
T1 construct: mature
Assay: ELISA, fusion protein coated at 10 ug/ml, vitronectin from 10 ug/ml in two-fold dilutions, detected with peroxidase sheep anti-human vitronectin

T1 sequence (P04004 20-478): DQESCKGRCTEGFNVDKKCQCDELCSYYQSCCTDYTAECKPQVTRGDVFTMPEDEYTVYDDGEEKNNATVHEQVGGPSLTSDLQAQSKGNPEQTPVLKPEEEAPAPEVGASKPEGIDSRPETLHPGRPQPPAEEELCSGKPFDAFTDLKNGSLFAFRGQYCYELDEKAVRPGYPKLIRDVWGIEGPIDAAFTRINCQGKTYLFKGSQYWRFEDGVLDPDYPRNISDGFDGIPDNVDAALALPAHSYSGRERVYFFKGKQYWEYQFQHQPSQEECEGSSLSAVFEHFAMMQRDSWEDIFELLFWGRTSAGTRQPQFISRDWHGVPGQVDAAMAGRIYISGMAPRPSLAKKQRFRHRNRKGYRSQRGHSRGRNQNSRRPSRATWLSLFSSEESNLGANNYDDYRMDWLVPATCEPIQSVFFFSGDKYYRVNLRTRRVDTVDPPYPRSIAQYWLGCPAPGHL

B1: purified LVL317 PE-PilA fusion protein (other)
chain: QIQKAEQNDVKLAPPTDVRSGYIRLVKNVNYYIDSESIWVDNQEPQIVHFDAVVNLDKGLYVYPEPKRYARSVRQYKILNCANYHLTQVRTDFYDEFWGQGLRAAPKKQKKHTLSLTPDTTLYNAAQIICANYGEAFSVDKKGGTKKAAVSELLQASAPYKADVELCVYSTNETTNCTGGKNGIAADITTAKGYVKSVTTSNGAITVKGDGTLANMEYILQATGNAATGVTWTTTCKGTDASLFPANFCGSVTQ
notes: Coated on microtiter plates at 10 ug/ml; also called PE-PilA fusion non His-tagged protein
binding result: binds

Reference: US20160250313A1 (GlaxoSmithKline, published 2016)
